Results as given in PMC8573201.
Residue numbers refer to the chain shown, from its start.

How the values were obtained:
[1] = molecular target: T1, human GIPR double mutant R190Q-E288G (human) (UniProt P48546)
T1 sequence: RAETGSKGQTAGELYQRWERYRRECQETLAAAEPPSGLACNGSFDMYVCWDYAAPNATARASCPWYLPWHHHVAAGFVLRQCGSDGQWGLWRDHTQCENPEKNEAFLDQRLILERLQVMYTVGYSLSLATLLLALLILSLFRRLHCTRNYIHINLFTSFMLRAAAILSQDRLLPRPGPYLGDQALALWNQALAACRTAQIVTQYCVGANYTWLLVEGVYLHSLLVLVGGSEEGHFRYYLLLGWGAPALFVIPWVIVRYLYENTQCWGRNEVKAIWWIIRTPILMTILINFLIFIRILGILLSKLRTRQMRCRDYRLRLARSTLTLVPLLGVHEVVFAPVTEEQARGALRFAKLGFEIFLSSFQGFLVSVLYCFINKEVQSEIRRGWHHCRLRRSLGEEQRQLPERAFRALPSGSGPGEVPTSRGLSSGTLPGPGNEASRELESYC

[2] = molecular target: T2, human GIPR variant E288G (human) (UniProt P48546)
T2 sequence: T1 sequence with Q169R

[3] = molecular target: T3, human GIPR variant R190Q (human) (UniProt P48546)
T3 sequence: T1 sequence with G267E

[4] = molecular target: T4, wild-type human GIP receptor (GIPR) (human) (UniProt P48546)
T4 sequence: T1 sequence with Q169R, G267E

[5] = molecular target: T1, human GIPR double mutant R190Q-E288G (human); remark: listed apart in the source
[6] = molecular target: T2, human GIPR variant E288G (human); remark: listed apart in the source
[7] = molecular target: T3, human GIPR variant R190Q (human); remark: listed apart in the source
[8] = molecular target: T4, wild-type human GIP receptor (GIPR) (human); remark: listed apart in the source
[9] = scale: negative logarithm of molar concentration

Rluc8-Arrestin-3-Sp1, sequence (P32121 whole entry): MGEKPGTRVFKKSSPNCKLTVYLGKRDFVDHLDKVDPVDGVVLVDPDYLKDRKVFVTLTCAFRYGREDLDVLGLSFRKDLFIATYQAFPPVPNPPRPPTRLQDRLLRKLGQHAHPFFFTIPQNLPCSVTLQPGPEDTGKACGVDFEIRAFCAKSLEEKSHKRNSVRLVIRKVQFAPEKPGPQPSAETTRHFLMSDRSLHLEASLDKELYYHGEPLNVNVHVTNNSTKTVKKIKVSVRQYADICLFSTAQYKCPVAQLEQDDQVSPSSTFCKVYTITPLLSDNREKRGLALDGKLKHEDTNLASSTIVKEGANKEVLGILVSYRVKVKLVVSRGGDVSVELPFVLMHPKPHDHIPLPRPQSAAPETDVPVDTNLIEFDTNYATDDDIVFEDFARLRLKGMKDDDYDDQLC

β-arrestin 2 recruitment in HEK293 cells (BRET between Rluc8-Arrestin-3-Sp1 and mem-linker-citrine-SH3, GRK2 co-expressed) on stimulation with GIP(1-42), Emax [1]: 12 % of WT
β-arrestin 2 recruitment in HEK293 cells (BRET, GRK2 co-expressed), pEC50 of GIP(1-42) [1, 9]: 8
β-arrestin 2 recruitment in HEK293 cells (BRET between Rluc8-Arrestin-3-Sp1 and mem-linker-citrine-SH3, GRK2 co-expressed) on stimulation with GIP(1-42), Emax [2]: 8.6 % of WT
β-arrestin 2 recruitment in HEK293 cells (BRET, GRK2 co-expressed), pEC50 of GIP(1-42) [2, 9]: 9.6
β-arrestin 2 recruitment in HEK293 cells (BRET between Rluc8-Arrestin-3-Sp1 and mem-linker-citrine-SH3, GRK2 co-expressed) on stimulation with GIP(1-42), Emax [3]: 9 % of WT
β-arrestin 2 recruitment in HEK293 cells (BRET, GRK2 co-expressed), pEC50 of GIP(1-42) [3, 9]: 9.1
β-arrestin 2 recruitment in HEK293 cells (BRET between Rluc8-Arrestin-3-Sp1 and mem-linker-citrine-SH3, GRK2 co-expressed) on stimulation with GIP(1-42), Emax [4]: 98 % of WT
β-arrestin 2 recruitment in HEK293 cells (BRET, GRK2 co-expressed), pEC50 of GIP(1-42) [4, 9]: 9.1
β-arrestin 2 recruitment in HEK293 cells (BRET, GRK2 co-expressed), EC50 of GIP(1-42) [5]: 11 nM
β-arrestin 2 recruitment in HEK293 cells (BRET, GRK2 co-expressed), EC50 of GIP(1-42) [6]: 0.23 nM
β-arrestin 2 recruitment in HEK293 cells (BRET, GRK2 co-expressed), EC50 of GIP(1-42) [7]: 0.76 nM
β-arrestin 2 recruitment in HEK293 cells (BRET, GRK2 co-expressed), EC50 of GIP(1-42) [8]: 0.88 nM
Substance: Rluc8-Arrestin-3-Sp1 (from UniProt P32121 1-409) (natural protein)
